The text below walks through data of article PMC4156547.

A word on the stoichiometry N: it is the number of molecules, sites or subunits per partner or assembly.

Assay [1] concerns the target gp41^27–154 (HIV ectodomain) (HIV-1). The assay is described as follows: AUC.
Assay [2] concerns the target HIV-1 gp41^27–194 (HIV-1 (HXB2)). The assay is described as follows: AUC.

Substance “gp41^27–154 (HIV ectodomain) (domain or fragment)” registered a stoichiometry N in assay [1] of 3.

In turn, HIV-1 gp41^27–194 (domain or fragment) showed a stoichiometry N in assay [2] of 3.
